Test results taken from US20230272088A1 (SYNTHEKINE, published 2023).

T1: extracellular domain of hIFNGR2 (human, UniProt P38484 28-247, conjugated to Alexa647 (site not stated))
T1 construct: also called hIFNGR2-ECD; human IFNGR2 ECD
T1 sequence: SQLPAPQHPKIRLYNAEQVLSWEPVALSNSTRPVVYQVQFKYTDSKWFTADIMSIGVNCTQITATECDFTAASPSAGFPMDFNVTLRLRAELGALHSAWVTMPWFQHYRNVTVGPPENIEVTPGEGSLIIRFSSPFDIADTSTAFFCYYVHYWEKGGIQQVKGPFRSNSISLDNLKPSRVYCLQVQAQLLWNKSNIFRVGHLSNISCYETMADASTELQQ

T2: extracellular domain of hIFNGR1 (human, UniProt P15260 18-245, conjugated to Alexa647 (site not stated))
T2 construct: UniProt P15260 residues 18-245; also called hIFNGR1-ECD; human IFNGR1 ECD
T2 sequence: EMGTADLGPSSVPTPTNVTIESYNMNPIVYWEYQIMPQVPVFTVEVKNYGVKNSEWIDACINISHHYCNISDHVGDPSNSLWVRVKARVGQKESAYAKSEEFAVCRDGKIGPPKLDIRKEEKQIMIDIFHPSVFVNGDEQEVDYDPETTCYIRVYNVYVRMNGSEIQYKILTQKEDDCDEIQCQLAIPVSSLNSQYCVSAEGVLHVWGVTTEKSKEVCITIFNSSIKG

B1: DR947 (VHH)
VHH: QVQLVESGGGLVQAGGSLRLSCAASGGSFGRYTMGWYRQAPGKEREFVAVISWSGTNTYYADSVKGRFTISRDNAKNTMYLQMNDLKPEDTAVYYCAARETYYSHWDERMEYDYWGQGTQVTVSS
notes: also called anti-IFNGR2 sdAb VHH DR947
B2: DR931 (VHH)
VHH: QVQLVESGGGLVQAGGSLLLSCAASGRTFSTYAMGWFRQAPGKERMFVAAISVNGGSTYYADSVTGRFTISRDNAKNTMYLQMNNLKPGDTAVYYCAARRPYPGSDFLTWASYDYRGQGTLVTVSS
notes: also called anti-IFNGR2 sdAb VHH DR931
B3: DR938 (VHH)
VHH: QVQLVESGGGLVQPGGSLRLSCTASGRPRTTYAMGWFRQAPGKEREIVAAISKAGGSTYVADSAKGRFAISKDNAKNTVYLQMNSLKPEDTAVYYCAARAGFAAQIFEYDYWGQGTLVTVSS
notes: also called anti-IFNGR2 sdAb VHH DR938
B4: DR919 (VHH)
VHH: EVQLVESGGGLVQPGGFLRLSCAASRRTLSTYAMGWFRQAPGKEREFVAAISWRSGNTYYADSVKGRFTISRDNAKNTMYLQMNSLKPEDTAVYYCAANEVATMSGPHDHWGQGTLVTVSS
notes: also called anti-IFNGR1 sdAb VHH DR919
B5: DR934 (VHH)
VHH: QVQLVESGGGLVQAGGSLRLSCAASGRSFANYAMGWFRQAPGKERETVAAISRGGGSTWYADSVKGRFTISKDNAKNTVYLQMNSLKPEDTAIYYCAARSYSGSYTYSFGEYDYWGQGTQVTVSS
notes: also called anti-IFNGR2 sdAb VHH DR934
B6: DR936 (VHH)
VHH: EVQLVESGGGLVQAGGSLRLSCAASGRTFSSVAMAWFRQAPGKEREFVSAISSGGGSTDYADSVKGRFTISKDNAKNTMYLQMDSLKPEDTAVYYCAARDYSSRRYYQSRYEYDLWGLGTQVTVSS
notes: also called anti-IFNGR2 sdAb VHH DR936
B7: DR933 (VHH)
VHH: QVQLVESGGGLVQPGDSLRLSCVASGGTISSLAMGWFRQAPGKEREFVAAISWSGRSTYYVDSVKGRFTISTDNAKNTVYLQMNSLKPEDTAVYYCVAGEDGHSEYDYWGQGTQVTVSS
notes: also called anti-IFNGR2 sdAb VHH DR933
B8: DR951 (VHH)
VHH: QVQLVESGGGLVQAGGSLRLSCAASGRTFGTSFGSLSMGWFRQAPGKEREFVAAISRNIGRTYYADSVKDRFTISRDNAKNTASLQMNSLEPEDTAVYNCAATNSYDDLRRSYAYDYWGQGTQVTVSS
notes: also called anti-IFNGR2 sdAb VHH DR951
B9: DR929 (VHH)
VHH: QVQLVESGGGLVQAGGSLRLSCVASGRTFSSYAMGWFRQTPGKEREFVSAISRGGGSTDYADSVKGRFTISRDNAKNTVYLQMNNLKSEDTAVYYCALRAYSGRYYQFLEYDYWGQGTQVTVSS
notes: also called anti-IFNGR2 sdAb VHH DR929
B10: DR928 (VHH)
VHH: QVQLVESGGGLVQAGGSLRLSCAASGRTFSNYRMGWFRQAPGKEREFVAAISRGGGTTLYADSVKGRFTISRDNAKNTVDLQMNRLKPEDTAVYFCAAGDFSTTWDEYNYWGQGTQVTVSS
notes: also called anti-IFNGR2 sdAb VHH DR928
B11: DR940 (VHH)
VHH: EVQLVESGGRLVQTGGSLRLSCAASGRTFSNYAMGWFRQAPGKEREFVAAISWYSGNTYYADSVKGRFTISRDNAKNTMYLQMNSLKPEDTAVYYCAANQIATMISVGDYWGQGTLVTVSS
notes: also called anti-IFNGR2 sdAb VHH DR940
B12: DR948 (VHH)
VHH: QVQLVESGGGLVQAGDSLRLSCVASGSIDSSYYVSWFRQAPGKERDLVAAINWGDSRTAYADSVKGRFTISRDNAKNTVYLQMHSLRPNDTAVYYCASRIGLGGPVVAAPTRYPYWGQGTLVTVSS
notes: also called anti-IFNGR2 sdAb VHH DR948
B13: DR935 (VHH)
VHH: QVQLVESGGGLVQAGGSLRLSCAASGRAFSTYALGWFRQAPGKEREFIAAISRGGGSTDYADSVKGRFTISRDNAKSTVYLQMNSLKPEDTAVYYCAARSYSSSYYYSQYEYDYWGQGTQVTVSS
notes: also called anti-IFNGR2 sdAb VHH DR935
B14: DR950 (VHH)
VHH: QVQLVESGGGLVQAGGSLRLSCAASGLTTSSAALAWFRQAPGKERELDPTITSGGGSTYYADSVKGRFTISKDNAKNTLYLQMSSLKPEDTAVYYCAARFYSTTYYYREHEYSDWGQGTQVTVSS
notes: also called anti-IFNGR2 sdAb VHH DR950
B15: DR932 (VHH)
VHH: QVQLVESGGGLVQAGGFLRLSCAASGRTFSYTTIGWFRQAPGKEREFVAVISAGGGSRDYADALKGRFTISRDNAKKMVYLQMNNLKPEDTAVYYCAVRRNTDTYTTTGDYDYWGQGTQVTVSS
notes: also called anti-IFNGR2 sdAb VHH DR932
B16: DR921 (VHH)
VHH: QVQLVESGGGLVQAGDSLRLSCAASGRTFTFSTHNMGWFRQAPGKEREFVGGIMWTSRASYADSVKGRFTVSRDNAKNTVYLQMNSLKPEDTAVYYCAAAWYGNSGASYDYWGQGTQVTVSS
notes: also called anti-IFNGR1 sdAb VHH DR921
B17: DR952 (VHH)
VHH: QVQLVESGGGLVQAGGFLRLSCAASGRTFSSLAMAWFRQAPGKEREFVAAISRSGGSTDYADSVKGRFTISRDNAKSTLYLQMSSLKPEDTAVYYCAARDYSTLQYYNEYEYSDWGQGTLVTVSS
notes: also called anti-IFNGR2 sdAb VHH DR952
B18: DR927 (VHH)
VHH: QVQLVESGGGLVQAGGSLRLSCAASGRTFTSYAMNWFRQAPGKEREFVAAISWSSGNTYVADSVKGRFAISRDKAKNTMYLQMNSLAPEDTAVYYCAATTIATMSDEYTYWGQGTQVTVSS
notes: also called anti-IFNGR2 sdAb VHH DR927
B19: DR904 (VHH)
VHH: EVQLVESGGGLVQAGGSLRLSCEASESILSINTMGWFRQAPGKQRELVAAISSGGSTNYADSVKGRFTISRDNAKNTVYLQMNSLKPEDTAVYYCDADRAYYKGQGTQVTVSS
notes: also called anti-IFNGR1 sdAb VHH DR904
B20: DR939 (VHH)
VHH: EVQLVESGGGLVQAGGSMRLSCANSGRTFGTYAMGWFRQSPGKERERVASIDRDGSMSYYADSVKGRFTISGDNAKNTVYLQMNSLKPEDTAVYYCAASRRAVISLQTVDYWGQGTQVTVSS
notes: also called anti-IFNGR2 sdAb VHH DR939
B21: DR943 (VHH)
VHH: QVQLVESGGGLVQAGGSLRLSCVASGRTVGYGMAWFRQAPGKQRDVVAAITWSGTSTYYPDSVKGRFTISRDNAKNTMYLQMSSLKPEDTAVYYCAAGSRRRVGVDVGGYDYWGQGTQVTVSS
notes: also called anti-IFNGR2 sdAb VHH DR943
B22: DR937 (VHH)
VHH: QVQLVESGGGLVQPGGSLRLSCAASGRTFRSYSMGWFRQAPGKEREFVAAISWYSGTTYYADPVKGRFTISRDDAKNTLYLQMNSLKPEDTAVYYCAANEIATMESSNDYWGQGTQVTVSS
notes: also called anti-IFNGR2 sdAb VHH DR937
B23: DR946 (VHH)
VHH: QVQLVESGGGLVQPGESLRLSCAASGPFTRYAMGWFRQAPGKEREFVAAISWSSGNTYYVDSVKGRFTISRDNAKNTMYLQMNSLKPEDTAVYYCAANEVATMSGPDDYWGQGTQVTVSS
notes: also called anti-IFNGR2 sdAb VHH DR946
B24: DR949 (VHH)
VHH: QVQLVESGGGLVQAGGSLRLSCAASESILRFNVMSWLRQAPGKQRELVAVITSGGSTNYADSVKGRFTISRDNAKNTVYLQMNSLKPEDTAVYYCAADESGQYYWGQGTQVTVSS
notes: also called anti-IFNGR2 sdAb VHH DR949
B25: DR941 (VHH)
VHH: QVQLVESGGGLVEAGGSLRLACAASGSIFRLNLMGWYRQAPGKQRELVAHVGTTGNTAYADSVKGRFTISKDDAKNMVFLQMNSLKPEDTAVYYCYADRWGQFSWGQGTQVTVSS
notes: also called anti-IFNGR2 sdAb VHH DR941
B26: DR930 (VHH)
VHH: EVQLVESGGGLVQAGGSLRLSCTVSGRTFSSYAVAWFRQAPGNVRELAAALSRGGGSAYYTDSVKGRFTISRDNAKNTVYLQMNSLKPEDTAVYYCAARNYDGTYYQENQYNYWGQGTQVTVSS
notes: also called anti-IFNGR2 sdAb VHH DR930

Key:
[1] = target: T1, extracellular domain of hIFNGR2; experiment: flow cytometry, yeast-displayed VHH, 100 nM Alexa647-conjugated antigen
Method: (§1) Binding of individual VHH to human and murine antigen was tested by flow cytometry. Briefly, 2E5 yeast cells expressing a single sdAb clone were added to each well of a 96 well plate. The first plate was incubated with 100 nM of human antigen conjugated to Alexa647 whereas the second plate was incubated with 100 nM of murine antigen conjugated to Alexa647. Yeast cells were washed 3 times with PBS containing 1% bovine serum albumin. Yeast cells were analyzed using flow cytometry and clones showing a mean fluorescence intensity of greater than 1000 were considered as binding molecules. Specificity of sdAbs was confirmed by incubating yeast cells with a irrelevant protein conjugated to Alexa647. Positive clones were sequenced, and sequences analyzed to identify unique clonotypes.

[2] = target: T2, extracellular domain of hIFNGR1; experiment: as above
Method: as §1

Binder | binding result [1] | binding result [2]
B1 | binds | –
B2 | binds | –
B3 | binds | –
B4 | – | binds
B5 | binds | –
B6 | binds | –
B7 | binds | –
B8 | binds | –
B9 | binds | –
B10 | binds | –
B11 | binds | –
B12 | binds | –
B13 | binds | –
B14 | binds | –
B15 | binds | –
B16 | – | binds
B17 | binds | –
B18 | binds | –
B19 | – | binds
B20 | binds | –
B21 | binds | –
B22 | binds | –
B23 | binds | –
B24 | binds | –
B25 | binds | –
B26 | binds | –
